Source: paper PMC9886983, “Mechanism of regulation of the Helicobacter pylori Cagβ ATPase by CagZ” (Nature Communications, 2023)

T1: Cagβ-AAD1 (residues 289-488) E396A (Helicobacter pylori 26695, UniProt O25260 289-488, E396A)
T1 construct: Cagβ (HP0524, Cag5) of Helicobacter pylori 26695, residues 289-488, with E396A; also called Cagβ-AAD1_E396A; source: E. coli BL21 star (DE3), purified as the wild type but without TEV protease treatment; not shown: His6, N-terminal, kept; TrxA, N-terminal, kept
T1 sequence: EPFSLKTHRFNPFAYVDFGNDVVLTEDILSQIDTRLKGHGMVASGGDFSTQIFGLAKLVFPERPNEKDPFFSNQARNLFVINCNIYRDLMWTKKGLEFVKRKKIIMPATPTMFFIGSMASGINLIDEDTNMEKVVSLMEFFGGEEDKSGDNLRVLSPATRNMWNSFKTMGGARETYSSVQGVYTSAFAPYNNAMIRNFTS

T2: Cagβ2 (residues 243-748) (Helicobacter pylori 26695, UniProt O25260 243-748)
T2 construct: Cagβ (HP0524, Cag5) of Helicobacter pylori 26695, residues 243-748; also called Cagβ2 (243-748); source: E. coli BL21 star (DE3), purified (Ni-NTA, TEV, second Ni-NTA, SEC); not shown: His6, N-terminal, cleaved; TrxA, N-terminal, cleaved
T2 sequence: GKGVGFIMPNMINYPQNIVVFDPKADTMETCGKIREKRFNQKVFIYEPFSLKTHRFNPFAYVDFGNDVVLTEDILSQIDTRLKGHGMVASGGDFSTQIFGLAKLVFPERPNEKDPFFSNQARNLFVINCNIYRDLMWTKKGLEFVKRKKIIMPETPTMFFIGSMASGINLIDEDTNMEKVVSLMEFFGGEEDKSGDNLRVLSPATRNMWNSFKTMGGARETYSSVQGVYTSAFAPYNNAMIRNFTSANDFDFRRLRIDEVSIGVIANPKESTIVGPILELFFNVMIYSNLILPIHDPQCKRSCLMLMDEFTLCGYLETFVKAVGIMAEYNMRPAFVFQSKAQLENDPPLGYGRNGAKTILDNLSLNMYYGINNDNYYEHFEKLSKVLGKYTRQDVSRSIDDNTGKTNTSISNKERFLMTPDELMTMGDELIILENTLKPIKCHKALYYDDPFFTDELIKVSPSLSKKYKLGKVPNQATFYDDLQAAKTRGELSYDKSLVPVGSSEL

T3: Cagβ-AAD2 (residues 289-505) (Helicobacter pylori 26695, UniProt O25260 289-505)
T3 construct: Cagβ (HP0524, Cag5) of Helicobacter pylori 26695, residues 289-505, holds the all-alpha domain (AAD); also called Cagβ-AAD2 (289-505); source: E. coli BL21 star (DE3), purified (Ni-NTA, TEV, second Ni-NTA, SEC); not shown: His6, N-terminal, cleaved; TrxA, N-terminal, cleaved
T3 sequence: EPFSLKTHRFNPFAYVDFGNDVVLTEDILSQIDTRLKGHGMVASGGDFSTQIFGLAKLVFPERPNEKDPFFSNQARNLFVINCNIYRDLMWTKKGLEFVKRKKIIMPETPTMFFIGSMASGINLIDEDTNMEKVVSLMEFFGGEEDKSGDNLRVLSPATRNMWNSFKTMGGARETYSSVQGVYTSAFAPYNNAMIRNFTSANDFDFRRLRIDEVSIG

T4: Cagβ1 (soluble region of Cagβ, residues 166-748) (Helicobacter pylori 26695, UniProt O25260 166-748)
T4 construct: Cagβ (HP0524, Cag5; VirD4 homolog) of Helicobacter pylori 26695, residues 166-748, soluble region without the transmembrane region; also called Cagβ1(166-748); Cagβ-WT; source: E. coli BL21 star (DE3), purified (Ni-NTA, TEV, second Ni-NTA, SEC); not shown: His6, N-terminal, cleaved; TrxA, N-terminal, cleaved
T4 sequence: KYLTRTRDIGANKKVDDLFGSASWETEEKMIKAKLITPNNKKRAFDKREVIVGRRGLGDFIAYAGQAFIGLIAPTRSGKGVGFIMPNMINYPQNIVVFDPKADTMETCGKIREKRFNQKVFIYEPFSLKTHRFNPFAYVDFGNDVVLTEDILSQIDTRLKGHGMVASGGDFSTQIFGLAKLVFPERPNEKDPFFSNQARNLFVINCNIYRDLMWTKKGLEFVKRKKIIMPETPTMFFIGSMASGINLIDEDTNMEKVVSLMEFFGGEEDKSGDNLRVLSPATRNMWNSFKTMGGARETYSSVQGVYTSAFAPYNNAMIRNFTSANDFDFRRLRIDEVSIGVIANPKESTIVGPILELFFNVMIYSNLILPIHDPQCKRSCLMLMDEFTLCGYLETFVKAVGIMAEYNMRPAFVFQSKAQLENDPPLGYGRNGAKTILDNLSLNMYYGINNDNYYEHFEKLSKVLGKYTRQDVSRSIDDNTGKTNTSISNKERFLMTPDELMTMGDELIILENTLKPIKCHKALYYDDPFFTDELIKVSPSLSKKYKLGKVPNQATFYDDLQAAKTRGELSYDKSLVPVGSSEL


Legend:
[1] = target: T1, Cagβ-AAD1 (residues 289-488) E396A; test: ITC; ITC-200, 25 °C, 20 mM Tris pH 8.0, 150 mM NaCl; Cagβ proteins (20 µM) in the cell, CagZ proteins (200 µM) in the syringe; conditions: both partners purified
Cagβ2 (residues 243-748) = target: T2, Cagβ2 (residues 243-748); test: as above; conditions: both partners purified
[2] = target: T3, Cagβ-AAD2 (residues 289-505); test: as above; conditions: both partners purified
[3] = target: T4, Cagβ1 (soluble region of Cagβ, residues …); test: as above; conditions: both partners purified
[4] = target: the molecule itself; test: crystal structure; apo-Cagβ1, 2.8 Å; crystals from 35% PEG400, 0.2 M Li2SO4, 0.1 M Tris 8.5 at 285 K; six protomers in the asymmetric unit

Row | Binder | Kd [1] | Kd (Cagβ2 (residues 243-748)) | Kd [2] | Kd [3] | stoichiometry N [4]
1 | CagZ (residues 2-199), wild type (natural protein, CagZ of Helicobacter pylori 26695, residues 2-199; also called CagZ-WT; source: E. coli BL21 star (DE3), purified (Ni-NTA, TEV, second Ni-NTA, SEC); not shown: His6, N-terminal, cleaved; TrxA, N-terminal, cleaved) ELGFNETERQKILDSNKSLMGNANEVRDKFIQNYASSLKDSNDPQDFLRRVQELRINMQKNFISFDVYYNYLNNLVLASYNRCKQEKTFAESTIKNELTLGEFVAEISDNFNNFMCDEVARISDLVASYLPREYLPPFIDGNMMGVAFQILGIDDFGRKLNEIVQDIGTKYIILSKNKTYLTSLERAKLITQLKLNLE | ~50 nM | 20 nM | 20 nM | 50 nM | 
2 | Cagβ1 (soluble region of Cagβ, residues 166–748) (domain or fragment, Cagβ (HP0524, Cag5; VirD4 homolog) of H. pylori 26695, residues 166-748, the soluble (cytosolic) region; Dynamic hexamer; monomer at low concentration; also called apo-Cagβ1; HP0524; source: E. coli BL21 star (DE3), purified (Ni-NTA, TEV cleavage, second Ni-NTA, SEC); also co-expressed with CagZ-pET-28a and co-purified; not shown: His6, N-terminal, cleaved; TrxA, N-terminal, cleaved) KYLTRTRDIGANKKVDDLFGSASWETEEKMIKAKLITPNNKKRAFDKREVIVGRRGLGDFIAYAGQAFIGLIAPTRSGKGVGFIMPNMINYPQNIVVFDPKADTMETCGKIREKRFNQKVFIYEPFSLKTHRFNPFAYVDFGNDVVLTEDILSQIDTRLKGHGMVASGGDFSTQIFGLAKLVFPERPNEKDPFFSNQARNLFVINCNIYRDLMWTKKGLEFVKRKKIIMPETPTMFFIGSMASGINLIDEDTNMEKVVSLMEFFGGEEDKSGDNLRVLSPATRNMWNSFKTMGGARETYSSVQGVYTSAFAPYNNAMIRNFTSANDFDFRRLRIDEVSIGVIANPKESTIVGPILELFFNVMIYSNLILPIHDPQCKRSCLMLMDEFTLCGYLETFVKAVGIMAEYNMRPAFVFQSKAQLENDPPLGYGRNGAKTILDNLSLNMYYGINNDNYYEHFEKLSKVLGKYTRQDVSRSIDDNTGKTNTSISNKERFLMTPDELMTMGDELIILENTLKPIKCHKALYYDDPFFTDELIKVSPSLSKKYKLGKVPNQATFYDDLQAAKTRGELSYDKSLVPVGSSEL |  |  |  |  | 6
